Data published in the supplement of paper PMC10567573.
± gives the standard deviation.

Experiment: protein stability index of a GFP-peptide fusion (GPS, HEK-293T) (PSI 1-6); higher = more stable
Conditions: c terminus: a fixed tail appended
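Note: 24-mer peptide tiles fused after GFP, lentivirally expressed, FACS-sorted into six equal bins by GFP/DsRed ratio, decoded by Illumina sequencing, PSI is the read-weighted mean bin number.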

Sequence	protein stability index (treatment: DMSO)	protein stability index (treatment: MLN4924 1 uM, 8 h)
SSSSSSSSSSGPGHGEPDVLKDEL [TMEM40]	5.44 ± 0.15	5.42 ± 0.21
IQDRLSNTLQTYIRCRHPPPGSHL [VDR]	2.73 ± 0.17	2.74 ± 0.22
VQGGSEAWGPGTLAAAPEGLEDAG [TEX19]	5.12 ± 0.36	5.41 ± 0.2
CLSFQPECSMKLTPLVLEVFGNEI [VDR]	2.27 ± 0.38	2.52 ± 0.19
QVETSIEGTIPFSKPVKVYIMPKP [INTS4]	2.65 ± 0.33	2.65 ± 0.42
EKFDIVKKWGINTYKCTKQLLSER [ARFIP2]	2.78 ± 0.37	2.79 ± 0.19
PGSTSPLETSGNPNGRYGSGYLLA [SLC6A17]	3.44 ± 0.19	3.72 ± 0.33
CEEALCSNLSVENVADTLVLADLH [SPOPL]	4.52 ± 0.086	4.48 ± 0.22
NILFYVVGLRNTLTRIRKWIEHSK [GLT8D2]	2.59 ± 0.18	2.76 ± 0.46
EEGLADEEKKLRRSQHARKETEFL [STK38L]	5.33 ± 0.08	5.2 ± 0.39
YLSNARPDNWFCYPCIPNHELVWA [ZMYND11]	2.67 ± 0.34	2.23 ± 0.49
TVASEAKIQLSDSEAKSHSSADDA [FAN1]	5.46 ± 0.28	5.38 ± 0.27
RLVHTTAIEHFQPNADLLFSDPSQ [FCHO1]	3.78 ± 0.15	3.87 ± 0.24
DPLSTNYSLAPNTPINQNVSLHQA [NFE2L1]	4.25 ± 0.45	4.46 ± 0.16
VPYCERDYEKMFGTKCHGCDFKID [PDLIM7]	3.2 ± 0.55	3.46 ± 0.22
LWEKVMPSRYAAIYNGGVEAVSTL [SLC19A2]	2.19 ± 0.22	2.07 ± 0.29
VKVLAFTSIGDGPLSSDIQVITQT [PTPRD]	2.62 ± 0.48	2.31 ± 0.37
ILSGHEHAVSTCHFCVDDTKLLSG [WDR88]	2.71 ± 0.35	2.92 ± 0.35
VFCPLDPPPPYEAVVSQMDQEQGS [FAM189A2]	4.65 ± 0.13	4.76 ± 0.2
SPRDEYKPLDLSDSTLSYTETEAT [SMAD6]	5.45 ± 0.24	5.41 ± 0.23
HSTTPSGPGDEVARGIAGEKFDIV [ARFIP2]	4.75 ± 0.34	4.64 ± 0.15
KGKLFTWNILKTIALGQMLSLCIC [SLC35F2]	2.62 ± 0.89	2.57 ± 0.57
PVSDTPDEGDEPMPIPEDLSTTSG [IKZF1]	5.75 ± 0.25	5.66 ± 0.3

Sequence	protein stability index (treatment: DMSO)	protein stability index (treatment: MLN4924 1 uM, 8 h)
CRCKNSNTVYCKLESCPSRGQGKP [SPRY1]	3.66 ± 0.59	3.77 ± 0.29
LTERLKVLEAKMTMLTVIEQPVPP [EMID1]	3.09 ± 0.46	3.32 ± 0.16
CHSFAAAADGPTVCCNPYHFSRLC [SMAD6]	2.4 ± 0.35	2.22 ± 0.2
SVIKDHHTRSITSCCFDPDSQRVA [WDR88]	3.35 ± 0.2	3.41 ± 0.38
GASHVLALSTERELFAWGRGDSGR [NEK8]	3.38 ± 0.31	3.42 ± 0.26
LMDIVPADDHRYKFADNKWSVTGK [TBX5]	3.63 ± 0.29	3.54 ± 0.15
LTVVSFYQVAALQGDLASLRAELQ [TNFSF13B]	2.77 ± 0.7	2.63 ± 0.68
VLVKDNGLGCKDLDLIFHVALPTE [TENT5C]	2.58 ± 0.57	2.82 ± 0.73
KSEEELAECFRIFDRNADGYIDPE [TNNC2]	4.8 ± 0.52	5.29 ± 0.43
DIWSKSNYQVFQKVTDHATTALLH [MED27]	2.44 ± 0.27	2.34 ± 0.31
MAHSKTRTNDGKITYPPGVKEISD [PDS5B]	4.59 ± 0.17	4.61 ± 0.21
TSIGDGPLSSDIQVITQTGVPGQP [PTPRD]	4.6 ± 0.22	4.76 ± 0.19
LQGAASHVPEGFDPTGPAGLGRPT [EHMT1]	4.54 ± 0.2	4.58 ± 0.14
RSLSPSLSSVDMRMTSSPSSIPRR [RAD54B]	4.66 ± 0.15	4.69 ± 0.18
QNARLAELERKLREVMESAVGNSS [FBXO28]	3.68 ± 0.23	3.52 ± 0.34
YLNSFLHQRIPQSVRILGSLVAIL [SLC29A1]	2.15 ± 0.25	2.23 ± 0.21
IVKQMKIIHEAGYSEEECKQYKAV [GNAI1]	3.13 ± 0.22	3.77 ± 0.23
TQRLWDFTQSGPIVSRATGRCLEV [GALNT9]	2.81 ± 0.43	3.02 ± 0.22
LQNKVPLLGSSTACIVVLDRTSHR [PPTC7]	2.14 ± 0.16	2.32 ± 0.33
VENNRRDVEAWFNTQTEELNQQVV [KRT36]	4.67 ± 0.27	4.65 ± 0.14
NMEKYNFLGISIVGQSNERGDGGI [DVL3]	3.18 ± 0.28	3.16 ± 0.82
GIENEEDTSKQKKMETMYPFIVTL [ZNF449]	2.39 ± 0.38	2.36 ± 0.1
EKESTELRAEEIETRVTSGSMEAL [PPFIA4]	5.53 ± 0.17	5.45 ± 0.27

Sequence	protein stability index (treatment: DMSO)	protein stability index (treatment: MLN4924 1 uM, 8 h)
TLIREKSFGACLREETPRMPSWAS [ELOA2]	2.14 ± 0.13	2.67 ± 0.71
DAGEVSYLPRDFSTYRPLPDPSVW [MYORG]	3.29 ± 0.17	3.27 ± 0.38
MALQLGRLSSGPCWLVARGGCGGP [CPOX]	2.36 ± 0.38	2.44 ± 0.38
PSPASEQTVTVEEAAGGESALAPS [MAP2]	5.45 ± 0.53	5.5 ± 0.15
MSAALFSLDGPARGAPWPAEPAPF [CEBPD]	2.95 ± 0.14	3.21 ± 0.18
LCVILYKKVHKGTVPKNDADDESE [GLT8D2]	2.02 ± 0.15	2.31 ± 0.1
DLEMKEEEEISETGELVGPFVSAM [ZBED2]	5.29 ± 0.27	5.27 ± 0.12
CQEYLARNARIVHLVEETRIHVLP [CPXM2]	2.2 ± 0.28	2.49 ± 0.35
DLLLWIQKHTEVETVDLVLKLKNK [DENND6A]	2.57 ± 0.63	2.21 ± 0.45
QLTCFSITCSSTMSYSCCLPSLGC [KRT34]	3.04 ± 0.58	2.65 ± 0.35
DLTFAPDGSLILVSASRDKTLRVW [WSB1]	2.32 ± 0.31	2.37 ± 0.099
EKTNGATPLLMAARYGHLDMVEFL [FEM1C]	2.91 ± 0.2	3.05 ± 0.37
VILIFHCEFSSERGPRMCRFIRER [CDC25B]	2.78 ± 1.1	2.64 ± 0.83
YTTEFHELEKIGSGEFGSVFKCVK [WEE1]	2.49 ± 0.85	3 ± 0.47
GRGSLSSGGQTSWDSGCLAPPSTR [PLEKHN1]	4.44 ± 0.24	4.15 ± 0.35
SPKRGTAPGDLSATEPATCFPSTQ [FBF1]	4.87 ± 0.18	4.92 ± 0.24
GCANNLLVHHRAAHSNEILIFSVQ [KLHDC2]	2.49 ± 1	2.67 ± 0.58
HHRVQENQMDKARRHPQGAWKELD [CHGB]	4.45 ± 0.11	4.4 ± 0.11
RSSVELELERCRQQAGLLVTGEKE [PPEF2]	4.74 ± 0.57	4.86 ± 0.34
SRLTALTLHQRTHTEERPFKCNYC [ZNF449]	2.73 ± 0.23	3.03 ± 0.4
VHPTKHEVHFLHEESILERVQQHI [MLH1]	3.18 ± 0.16	3.28 ± 0.15
FVFFVLLNMFLAIINDTYSEVKEE [PKD2L1]	3.36 ± 0.23	3.12 ± 0.26
SPELGRPHDRSQGDWAPPPEGGME [ZNF263]	5.18 ± 0.21	5.41 ± 0.25

Sequence	protein stability index (treatment: DMSO)	protein stability index (treatment: MLN4924 1 uM, 8 h)
GAARSFQEVTEPAVVAVDRQAIFP [PXN]	4.1 ± 0.26	4.04 ± 0.59
QELASLLRTYLARLPWAGQLTKEL [PBXIP1]	2.95 ± 0.59	2.72 ± 0.7
NAGSYIPSYTSWYPSAHQEAMQQP [DLX1]	2.76 ± 0.16	2.84 ± 0.32
EFLLDLGHHERSIMTDLYYLSQTD [FUT8]	2.2 ± 0.36	2.47 ± 0.16
YTFVPWLLSFKRGSALEEKENKIL [TNFSF13B]	2.51 ± 0.59	2.22 ± 0.3
QKELQDVGQSLRIKEQEVCKLQEQ [SASS6]	4.88 ± 0.25	5.03 ± 0.36
KDGKLLAATLLLALLSCCLTVVSF [TNFSF13B]	3.26 ± 0.39	3.35 ± 0.32
HIIRIGDLKPTGEIPKQVKVKKLK [DENND6A]	2.73 ± 0.2	3.12 ± 0.19
LLPPGEPPLLGTFPRDHTSLALVQ [ANKRD40]	3.48 ± 0.096	3.39 ± 0.31
MWLLVSVILISRISSVGGEAMFCD [CFHR2]	3.35 ± 0.25	3.08 ± 0.52
MPDTFNSRSPSVEGSLWAVGTESQ [PXN]	4.31 ± 0.16	4.38 ± 0.12
AKPEALSSPKFREEAAFPGRRVNA [ELOA2]	4.48 ± 0.25	4.59 ± 0.17
ETEDVDYGETDFHKQDGKAGLFSQ [TMEM40]	5.3 ± 0.27	5.36 ± 0.2
NVAATGISQYEDDLPPPPADPVLD [APBB1IP]	5.36 ± 0.18	5.45 ± 0.19
PPETKHQALSGTPKKGPAPSLSPG [TSPAN10]	5.31 ± 0.31	5.31 ± 0.13
EAQHGPHSAVARISRAQYNALTLT [STX11]	3.32 ± 0.11	3.47 ± 0.31
CVVCGDKSSGKHYGQFTCEGCKSF [NR2F2]	4.76 ± 0.4	4.99 ± 0.14
RLLRFSSQIHNNGQSDFRPKNGRH [LOXL2]	3.2 ± 0.41	3.42 ± 0.81
WTVWSGNRASLYSFPEPEAAQPMT [PRAME]	2.45 ± 0.034	2.57 ± 0.25
KRRRKETSECPSDKDKSPESHKAK [C10orf62]	5.34 ± 0.27	5.42 ± 0.21
